Source: patent US20240277803A1, “NME INHIBITORS AND METHODS OF USING NME INHIBITORS” (Minerva Biotechnologies Corporation, priority 2013, published 2024)
Like-named read-outs stand apart in the source and are kept apart here.

Legend:
human stem cells = assay: human stem cell culture in NME1 dimers or hexamers (FIG. 17D-G); format: cell-based
From the text: (§1) By contrast, NME1 is roughly half the molecular weight of NME7 (˜17 kDa) and has only one NDPK domain. NME1 acts as a growth factor that promotes growth and inhibits differentiation only when it is a dimer. At higher concentrations, NME1 can form hexamers. […] Thus, NME1, which is expressed later in embryogenesis, has the ability to turn itself off, thus limiting self-replication, while NME7 cannot. Wild type (wt) NME1 exists primarily as a hexamer at measurable concentrations. Mutant NME1 proteins, such as S120G that form stable dimer populations have been isolated from cancers and thus are continuously activating the MUC1* receptor. We made recombinant NME1-wt, and the S120G mutant. By varying refolding protocols we were able to stabilize populations that were essentially 100% hexamer or 100% dimer. In addition we isolated populations of NME1-S120G that were a mixture of dimer, tetramer and hexamer. […] In nature, when the concentration of stem cells reaches critical mass and their secretions of NME1 reaches the concentration at which they form hexamers, differentiation is induced. FIG. 18 is a cartoon depicting the mechanism, supported by experiments described herein, by which NME7 and NME1 function to promote pluripotency wherein NME1 regulates itself.

Human stem cells (iPS) = assay: human iPS stem cell culture in NME7-AB or NM23-H1 dimers; format: cell-based; settings: 8 nM in minimal media over MN-C3 surface
Protocol: Testing recombinant NME7 for ability to maintain pluripotency and inhibit differentiation. A soluble variant of NME7, NME7-AB, was generated and purified. Human stem cells (iPS cat #SC101a-1, System Biosciences) were grown per the manufacturer's directions in 4 ng/ml bFGF over a layer of mouse fibroblast feeder cells for four passages. These source stem cells were then plated into 6-well cell culture plates (Vita™, Thermo Fisher) that had been coated with 12.5 ug/well of a monoclonal anti-MUC1* antibody, MN-C3. Cells were plated at a density of 300,000 cells per well. The base media was Minimal Stem Cell Media consisting of: 400 ml DME/F12/GlutaMAX I (Invitrogen #10565-018), 100 ml Knockout Serum Replacement (KO-SR, Invitrogen #10828-028), 5 ml 100×MEM Non-essential Amino Acid Solution (Invitrogen#11140-050) and 0.9 ml (0.1 mM) β-mercaptoethanol (55 mM stock, Invitrogen #21985-023). The base media can be any media. In a preferred embodiment, the base media is free of other growth factors and cytokines. To the base media was added either 8 nM of NME7-AB or 8 nM NM23-H1 refolded and purified as stable dimers. Media was changed every 48 hours and due to accelerated growth had to be harvested and passaged at Day 3 post-plating. FIGS. 9 and 10 document the day by day comparison of growth in NM23-H1 dimers to growth in NME7 monomers. […] Cell counts at the first harvest verified that culture in NME7 produced 1.4-times more cells than culture in NM23-H1 dimers.

[1] = target: T1, MUC1* extra cellular domain peptide (Homo sapiens, UniProt P15941); assay: gold nanoparticle binding assay, NME7 and MUC1* peptide (FIG. 7); settings: protein added free in solution
T1 sequence (P15941 with tags, fused parts or gaps): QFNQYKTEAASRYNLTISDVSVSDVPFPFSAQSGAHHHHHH
Protocol: Gold nanoparticles of a diameter of 30.0 nm were coated with an NTA-SAM surface according to Thompson et al. (ACS Appl. Mater. Interfaces, 2011, 3 (8), pp 2979-2987). The NTA-SAM coated gold nanoparticles were then activated with an equal volume of 180 uM NiSO4, incubated for 10 min at room temperature, washed, and resuspended in a 10 mM phosphate buffer ([…]). The gold nanoparticles were then loaded with PSMGER N-10 peptide ([…] (SEQ ID NO:155)) at 0.5 uM final concentration, and incubated at room temperature for 10 min. Recombinant NME7-AB protein expressed and purified from E. coli was added free in solution at the concentrations indicated. When particle-immobilized proteins bind to each other, or simultaneously bind to two different peptides on two different particles, the particle solution color changes from pink/red to purple/blue. If the protein added free in solution causes particle aggregation, it is strong evidence that the free protein dimerizes the cognate peptide, since binding to a single peptide would not induce two or more particles to be brought into close proximity to each other.
The NME7-AB is added free in solution at the concentrations indicated. Solution color change from pink to purple/blue from particle aggregation indicates binding between the MUC1* peptide on the particles and NME7 free in solution. […] Particle aggregation, indicating NME7 can simultaneously bind to two peptides is observed. […] The T47D breast cancer cell line Lysate, which contains native NME7 turns noticeably purple also.

[2] = target: T2, PSMGFR peptide of the MUC1* extracellular domain (Homo sapiens, UniProt P15941); assay: SPR and nanoparticle binding of NME1 multimers to PSMGFR peptide (FIG. 17); parameters: the PSMGFR peptide of the MUC1* extracellular domain is immobilized on the chip; settings: for binding to MUC1* extracellular domain peptide (PSMGFR): SPR chip or gold nanoparticles
T2 sequence (P15941 1110-1154 limits assumed): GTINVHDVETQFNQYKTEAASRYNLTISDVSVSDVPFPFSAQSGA
From the text: MUC1* extra cellular domain peptide was immobilized onto gold nanoparticles.
as §1

[3] = target: T2, PSMGFR peptide of the MUC1* extracellular domain; assay: ELISA of NME6 binding to PSMGFR peptide (FIG. 19)
From the text: NME6 is also expressed in very early embryogenesis. NME6 is reportedly a dimer in some species such as sea sponge. NME6 must be expressed at high enough levels that it can form dimers before it can activate growth and inhibit differentiation. Thus, it is expressed at a later stage than NME7. […] We made recombinant NME6 as the wild type protein, or with a single point mutation S139G, which mimics the S120G mutation that causes NME1 to prefer dimer formation. In addition, another NME6 variant was made so that in this sensitive area, the human NME6 would look like sea sponge NME6, which reportedly exists as a dimer. These mutations are S139A plus V142D and V143A. […] In part A, NME6-wt is purified as the monomer or as a high molecular weight multimer. […] In part B, the NME6 multimers are dissociated by dilution in SDS. […] The gels of FIG. 19 D-H show expression of NME6-wt (D), NME6 with the S139G mutation that corresponds to the mutation S120G which in human NME1 increases dimer formation (E), NME6 bearing three mutations that make the human form mimic the sea sponge form that is reported to be a dimer (F), and a single chain protein linking two NME6 proteins (G,H). […] Thus an effective anti-cancer agent would be an antibody, small molecule or other agent that disrupts binding of NME6 dimers to MUC1* extra cellular domain peptide. […]

Row | Substance | pluripotent stem cell growth / differentiation (human stem cells) | stem cell growth, pluripotency and differentiation (Human stem cells (iPS)) | binding to MUC1* peptide on nanoparticles (color change pink to purple/blue) [1] | binding to MUC1* extracellular domain peptide (PSMGFR) ([2]; listed as NM23 dimers) | binding to MUC1* extracellular domain peptide (PSMGFR) ([2]; listed as dimer form of NME1) | binding to N-10 version of the PSMGFR peptide ([2]; first 10 amino acids of PSMGFR omitted) | binding to PSMGFR peptide (ELISA) [3] | binding to PSMGFR peptide (ELISA) ([3]; listed as NME6 monomer)
1 | NME1 hexamers: recombinant NME1 in hexamer form | induce differentiation |  |  |  |  |  |  | 
2 | NME1 dimers: recombinant NME1 (NM23-H1) S120G mutant refolded and purified as stable dimers | promote pluripotent stem cell growth | no differentiation | began to change almost immediately to purple | bind to the cognate receptor MUC1* | binds to the MUC1* extracellular domain | bind to the N-10 version of the PSMGFR peptide |  | 
3 | NME6: recombinant human NME6 wild type protein |  |  |  |  |  |  | binds to the PSMGFR peptide | preferential binding
